{"source": "paper PMC11110527", "about": "(Chemical Science, 2024)", "target": "the molecule itself", "test": "negative-stain electron microscopy", "data": [{"protein": "AtPORB Y177F_H319A double mutant (enzyme, A. thaliana) QTAATSSPTVTKSVDGKKTLRKGNVVVTGASSGLGLATAKALAETGKWNVIMACRDFLKAERAAKSVGMPKDSYTVMHLDLASLDSVRQFVDNFRRTETPLDVLVCNAAVFFPTAKEPTYSAEGFELSVATNHLGHFLLARLLLDDLKKSDYPSKRLIIVGSITGNTNTLAGNVPPKANLGDLRGLAGGLNGLNSSAMIDGGDFDGAKAYKDSKVCNMLTMQEFHRRFHEETGVTFASLYPGCIASTGLFREAIPLFRALFPPFQKYITKGYVSETESGKRLAQVVSDPSLTKSGVYWSWNNASASFENQLSEEASDVEKARKVWEISEKLVGLA", "values": [{"measurement": "binding result", "result": "binds"}]}]}
